Data: PMC13397619

B1: NLV3 TCR beta chain (CDR3β only) (parent)
chain: ASSPTGGSPSPLH
partner: MLVPMVATV

Variants of: B1
Assay: T-Switch: Jurkat TCRβ−/− cells expressing a CDR3 saturation-mutagenesis library, stained with two peptide-HLA-A*02:01 tetramers (original and novel peptide) plus anti-CD3, FACS-sorted into four gates, gDNA sequenced
Conditions: with HLA-A*02:01 with peptide … (NLV 3-1, the original bait), tetramers 1 µg/mL, 30 min on ice, DP and SW gates expanded about 10 days between rounds ('two to three rounds of selection' in the Methods), gate SP: higher = more of the variant in the gate that binds the original peptide and not the novel one = retained original binding. Fold enrichment of the CDR3 variant in one FACS gate of a two-tetra, unresolved parent, parent is a CDR3 fragment, scale: fold enrichment, numbering: sequential-on-construct, sequence …

Row | Variant | enrichment
1 | […] (CDR3 as printed); L12Q derived by comparing it with the table's wild-type CDR3 ASSPTGGSPSPLH | 0
2 | […] (CDR3 as printed); S10H derived by comparing it with the table's wild-type CDR3 ASSPTGGSPSPLH | 0
3 | […] (CDR3 as printed); L12V derived by comparing it with the table's wild-type CDR3 ASSPTGGSPSPLH | 0
4 | […] (CDR3 as printed); G7L derived by comparing it with the table's wild-type CDR3 ASSPTGGSPSPLH | 0
5 | […] (CDR3 as printed); P11F derived by comparing it with the table's wild-type CDR3 ASSPTGGSPSPLH | 0
6 | […] (CDR3 as printed); G6A derived by comparing it with the table's wild-type CDR3 ASSPTGGSPSPLH | 8.12
7 | […] (CDR3 as printed); S3H derived by comparing it with the table's wild-type CDR3 ASSPTGGSPSPLH | 0.783
8 | […] (CDR3 as printed); A1F derived by comparing it with the table's wild-type CDR3 ASSPTGGSPSPLH | 0
9 | […] (CDR3 as printed); S3T derived by comparing it with the table's wild-type CDR3 ASSPTGGSPSPLH | 10.9
10 | […] (CDR3 as printed); S10K derived by comparing it with the table's wild-type CDR3 ASSPTGGSPSPLH | 0
11 | […] (CDR3 as printed); S2V derived by comparing it with the table's wild-type CDR3 ASSPTGGSPSPLH | 1.18
12 | […] (CDR3 as printed); P9D derived by comparing it with the table's wild-type CDR3 ASSPTGGSPSPLH | 0
13 | […] (CDR3 as printed); S2K derived by comparing it with the table's wild-type CDR3 ASSPTGGSPSPLH | 0
14 | […] (CDR3 as printed); A1T derived by comparing it with the table's wild-type CDR3 ASSPTGGSPSPLH | 0
15 | […] (CDR3 as printed); G6K derived by comparing it with the table's wild-type CDR3 ASSPTGGSPSPLH | 0
16 | […] (CDR3 as printed); G7K derived by comparing it with the table's wild-type CDR3 ASSPTGGSPSPLH | 0
17 | […] (CDR3 as printed); H13I derived by comparing it with the table's wild-type CDR3 ASSPTGGSPSPLH | 11.3
18 | […] (CDR3 as printed); L12E derived by comparing it with the table's wild-type CDR3 ASSPTGGSPSPLH | 0
19 | […] (CDR3 as printed); S8G derived by comparing it with the table's wild-type CDR3 ASSPTGGSPSPLH | 0
20 | […] (CDR3 as printed); S8N derived by comparing it with the table's wild-type CDR3 ASSPTGGSPSPLH | 0
21 | […] (CDR3 as printed); T5V derived by comparing it with the table's wild-type CDR3 ASSPTGGSPSPLH | 19.2

Row | Variant | enrichment
22 | […] (CDR3 as printed); S8D derived by comparing it with the table's wild-type CDR3 ASSPTGGSPSPLH | 0
23 | […] (CDR3 as printed); P9Y derived by comparing it with the table's wild-type CDR3 ASSPTGGSPSPLH | 0
24 | […] (CDR3 as printed); P4L derived by comparing it with the table's wild-type CDR3 ASSPTGGSPSPLH | 0
25 | […] (CDR3 as printed); P4F derived by comparing it with the table's wild-type CDR3 ASSPTGGSPSPLH | 1.88
26 | […] (CDR3 as printed); S10E derived by comparing it with the table's wild-type CDR3 ASSPTGGSPSPLH | 5.53
27 | […] (CDR3 as printed); S2A derived by comparing it with the table's wild-type CDR3 ASSPTGGSPSPLH | 3.53
28 | […] (CDR3 as printed); G6W derived by comparing it with the table's wild-type CDR3 ASSPTGGSPSPLH | 0
29 | […] (CDR3 as printed); S10L derived by comparing it with the table's wild-type CDR3 ASSPTGGSPSPLH | 8.65
30 | […] (CDR3 as printed); A1N derived by comparing it with the table's wild-type CDR3 ASSPTGGSPSPLH | 0
31 | […] (CDR3 as printed); A1Y derived by comparing it with the table's wild-type CDR3 ASSPTGGSPSPLH | 0
32 | […] (CDR3 as printed); S8R derived by comparing it with the table's wild-type CDR3 ASSPTGGSPSPLH | 0
33 | […] (CDR3 as printed); A1P derived by comparing it with the table's wild-type CDR3 ASSPTGGSPSPLH | 0
34 | […] (CDR3 as printed); P9Q derived by comparing it with the table's wild-type CDR3 ASSPTGGSPSPLH | 0
35 | […] (CDR3 as printed); T5P derived by comparing it with the table's wild-type CDR3 ASSPTGGSPSPLH | 0
36 | […] (CDR3 as printed); P4G derived by comparing it with the table's wild-type CDR3 ASSPTGGSPSPLH | 0
37 | […] (CDR3 as printed); P11E derived by comparing it with the table's wild-type CDR3 ASSPTGGSPSPLH | 4.19
38 | […] (CDR3 as printed); S2Q derived by comparing it with the table's wild-type CDR3 ASSPTGGSPSPLH | 0
39 | […] (CDR3 as printed); S10G derived by comparing it with the table's wild-type CDR3 ASSPTGGSPSPLH | 14.9
40 | […] (CDR3 as printed); T5N derived by comparing it with the table's wild-type CDR3 ASSPTGGSPSPLH | 0
41 | […] (CDR3 as printed); S2N derived by comparing it with the table's wild-type CDR3 ASSPTGGSPSPLH | 0
42 | […] (CDR3 as printed); H13M derived by comparing it with the table's wild-type CDR3 ASSPTGGSPSPLH | 6.07
